Measured values: patent US20170072028A1

Target: C3aR1 (C3a receptor) on mouse pancreatic islet cells (mouse) (UniProt O09047)
Assay: cell-based or functional assay

Chain of C3aR1 (C3a receptor) on mouse pancreatic islet cells (mouse) (O09047 whole entry): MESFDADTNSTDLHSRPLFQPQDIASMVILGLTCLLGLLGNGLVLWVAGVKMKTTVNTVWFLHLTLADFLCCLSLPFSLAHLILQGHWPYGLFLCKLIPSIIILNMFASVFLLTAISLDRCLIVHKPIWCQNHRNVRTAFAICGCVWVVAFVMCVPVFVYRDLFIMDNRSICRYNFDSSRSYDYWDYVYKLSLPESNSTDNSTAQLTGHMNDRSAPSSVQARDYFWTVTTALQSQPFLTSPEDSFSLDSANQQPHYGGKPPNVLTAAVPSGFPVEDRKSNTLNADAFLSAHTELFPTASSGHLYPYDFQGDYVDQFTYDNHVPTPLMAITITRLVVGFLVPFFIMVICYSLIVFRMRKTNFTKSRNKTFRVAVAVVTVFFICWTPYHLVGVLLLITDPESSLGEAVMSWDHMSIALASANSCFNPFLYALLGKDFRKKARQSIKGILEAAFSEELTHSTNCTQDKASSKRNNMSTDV

Recombinant C3a protein (ligand) showed a glucose-stimulated insulin secretion assay on isolated murine islets (enhancement of insulin secretion at high glucose) of 30 to 40%.
